To fix the notation:
T1: ADAMTS5 (UniProt Q9UNA0 Q9UNA0:262-622)
T1 sequence: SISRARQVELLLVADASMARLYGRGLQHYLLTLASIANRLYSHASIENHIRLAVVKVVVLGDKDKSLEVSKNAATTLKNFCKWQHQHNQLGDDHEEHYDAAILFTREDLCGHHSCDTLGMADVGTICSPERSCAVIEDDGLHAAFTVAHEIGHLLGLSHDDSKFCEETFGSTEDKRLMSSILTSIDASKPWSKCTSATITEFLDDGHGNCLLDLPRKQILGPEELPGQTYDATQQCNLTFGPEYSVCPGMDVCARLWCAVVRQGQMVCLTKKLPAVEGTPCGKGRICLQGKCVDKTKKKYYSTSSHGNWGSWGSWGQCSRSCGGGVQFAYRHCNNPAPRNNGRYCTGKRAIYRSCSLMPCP

The first series deals with T1, ADAMTS5. The series can be described thus: SPR; RU ratio >=40%. The following applies: tags: R&D Systems. In general terms: Surface plasmon resonance follows binding to a sensor surface in real time, without labels.
Turning to GGGUAUUGGGGCCUCCACAGAAAAAACUUGGACUAAACCAACUCGA (ssRNA, 2'-F pyrimidines) [SEQ ID NO: 34], the binding result is on record as “binds”.

With GGGUAUUGGGGCCUCCACAGUAAGCACUUGGACUAAACCAGCUCGA (ssRNA, 2'-F pyrimidines) [SEQ ID NO: 35], the binding result is recorded as “binds”. For the molecule GGGUAUUGGGGCCUCCACAGUUUAAACUUGGACUAAACCAACUCGA (ssRNA, 2'-F pyrimidines) [SEQ ID NO: 36], the binding result was “binds”.

GGGUAUUGGGGCCUCCACAGUUGAAGCUUGGACUAAACCAAUCUCGA (ssRNA, 2'-F pyrimidines) [SEQ ID NO: 31]: the binding result is on record as “binds”. In the case of GGGUAUUGGGGCCUCCACAGAAAAAUCUUGGACUAAACCAAUCUCGA (ssRNA, 2'-F pyrimidines) [SEQ ID NO: 32], the binding result is reported as “binds”. In the case of GGGUAUUGGGGCCUCCACAGCCGAGGCUUGGACUAAACCAAUCUCGA (ssRNA, 2'-F pyrimidines) [SEQ ID NO: 33], the binding result is “binds”. With GGGUAUUGGGGCCUCCACAAUAGAUAAAUGGACUAAACCAACUCGA (ssRNA, 2'-F pyrimidines) [SEQ ID NO: 30], the binding result was “binds”.

In the next series the target is T1, ADAMTS5. The series is described as follows: inhibition; 10 nM. The following applies: tags: R&D Systems. As for the experimental part:
Whether an aptamer having the nucleotide sequence shown in SEQ ID NO: 1 inhibits the enzyme activity of ADAMTS5 was evaluated by the following method. As a substrate of ADAMTS5, the G1-IGD-G2 domain of aggrecan (manufactured by R&D systems) was used. ADAMTS5 specifically cleaves in between the 392nd glutamic acid and the 393rd alanine in the G1-IGD-G2 domain and produces two fragments. These fragments have faster electrophoretic mobility than uncleaved G1-IGD-G2. Thus, the enzyme activity of ADAMTS5 can be measured by quantifying the band intensity of G1-IGD-G2 by SDS-PAGE electrophoresis. The assay was performed in a solution A buffer with a reaction mixture volume of 10 μL. First, a mixture (10 μL) of a nucleic acid and ADAMTS5 was prepared and incubated at 25° C. for 15 min. To a substrate solution (5 μL) diluted with solution A was added a mixture (5 μL) of the nucleic acid and ADAMTS5 to start the enzyme reaction. The final concentration of ADAMTS5 in the reaction solution was 5 nM, and the final substrate concentration was 50 μg/mL. The reaction solution was incubated at 37° C. for 2 hr, 2 μL of solution D was added, and the mixture was heated at 95° C. for 2 min to stop the enzyme reaction of ADAMTS5. Solution D contains 0.25 M tris (pH 6.8), 10% SDS, 50% glycerol, 0.25% bromo phenolblue, and 20% 2-mercaptoethanol. The heat-treated reaction solution was electrophoresed by 7.5% SDS-PAGE and stained with SYPRO Orange (manufactured by Sigma-Aldrich). The staining was performed according to the manual of Sigma-Aldrich and detected using STORM840 manufactured by GE Healthcare. […] The amount of uncleaved substrate in each reaction solution was quantified from the band intensity and the standard curve. The substrate cleavage efficiency of ADAMTS5 under these reaction conditions was 80-100%. The inhibition rate of the test substance was calculated using the following equation.
The aptamers having the sequences shown in SEQ ID NOs: 10(1)-10(8) and 11(1)-11(35), SEQ ID NO: 13-15 were all produced by chemical synthesis.
With AUUGGGGCCUCCACAGCGCUCGCUUGGACUAAACCAAU (ssRNA, 2'-OMe at 1-5,15-26,32-38; 2'-F other pyrimidines) [11(1)], the activity was 62.8 % inhibition. Still for that read-out and setting: with AUUGGGGCCUCCACAGCGCUCGCUUGGACUAAACCAAU (mixed, as 11(1) with dG at 27) [11(10)] the figure was 59.1 % inhibition. For AUUGGGGCCUCCACAGCGCUCGCUUGGACUAAACCAAU (ssRNA, as 11(1) with PS between 30 and 31) [11(30)], the activity was 38.3 % inhibition.

Regarding AUUGGGGCCUCCACAGCGCUCGCUUGGACUAAACCAAU (ssRNA, as 11(1) with PS between 5 and 6) [11(16)], the activity turned out to be 50.9 % inhibition. AUUGGGGCCUCCACAGCGCUCGCUUGGACUAAACCAAU (mixed, as 11(1) with dG at 6) [11(2)] registered an activity of 60.6 % inhibition. In turn, AUUGGGGCCUCCACAGCGCUCGCUUGGACUAAACCAAU (mixed, as 11(1) with dT at 10) [11(6)] yielded an activity of 9.2 % inhibition. AUUGGGGCCUCCACAGCGCUCGCUUGGACUAAACCAAU (ssRNA, as 11(1) with PS between 10 and 11) [11(21)] gave an activity of 80.3 % inhibition. AUUGGGGCCUCCACAGCGCUCGCUUGGACUAAACCAAU (ssRNA, as 11(1) with PS between 14 and 15) [11(25)]: the activity turned out to be 76.4 % inhibition. Still for that read-out and setting: for AUUGGGGCCUCCACAGCGCUCGCUUGGACUAAACCAAU (mixed, as 11(1) with dC at 11) [11(7)] the value was 23 % inhibition.

As for AUUGGGGCCUCCACAGCGCUCGCUUGGACUAAACCAAU (mixed, as 11(1) with dG at 7) [11(3)], the activity was 19.5 % inhibition. The molecule AUUGGGGCCUCCACAGCUUCGGCUUGGACUAAACCAAU (ssRNA, 2'-OMe at 1-5,15-26,32-38; 2'-F other pyrimidines) [SEQ ID NO: 14] yielded an activity of 60.5 % inhibition. In turn, AUUGGGGCCUCCACAGCGCUCGCUUGGACUAAACCAAU (ssRNA, as 11(1) with 5' 40 kDa branched PEG and 3' idT) [11(33)] displayed an activity of 55.5 % inhibition. Molecule AUUGGGGCCUCCACAGCGCUCGCUUGGACUAAACCAAU (mixed, as 11(1) with dA at 31) [11(14)] displayed an activity of 45.1 % inhibition.

Take AUUGGGGCCUCCACAGCGCUCGCUUGGACUAAACCAAU (mixed, as 11(1) with dC at 8) [11(4)]: the activity was 50.9 % inhibition.

AUUGGGGCCUCCACAGCGCUCGCUUGGACUAAACCAAU (mixed, as 11(1) with dT at 30) [11(13)] registered an activity of 20.3 % inhibition. The same measure, in the same setting: for AUUGGGGCCUCCACAGCGCUCGCUUGGACUAAACCAAU (mixed, as 11(1) with dC at 12) [11(8)] the value was 43.2 % inhibition. AUUGGGGCCUCCACAGCGCUCGCUUGGACUAAACCAAU (ssRNA, as 11(1) with PS between 8 and 9) [11(19)] registered an activity of 81.1 % inhibition.

In the case of AUUGGGGCCUCCACAGCGCUCGCUUGGACUAAACCAAU (mixed, as 11(1) with dA at 28) [11(11)], the activity is 32 % inhibition. Same read-out and setting: with AUUGGGGCCUCCACAGCGCUCGCUUGGACUAAACCAAU (ssRNA, as 11(1) with PS between 6 and 7) [11(17)] the figure was 70 % inhibition. Consider AUUGGGGCCUCCACAGCGCUCGCUUGGACUAAACCAAU (mixed, as 11(1) with dC at 9) [11(5)], for which the activity amounted to 34.2 % inhibition. On the same count and under the same terms, with AUUGGGGCCUCCACAGCGCUCGCUUGGACUAAACCAAU (ssRNA, as 11(1) with PS between 8-9, 9-10, 10-11, 14-15; 3' idT) [11(32)] the figure was 58.8 % inhibition; with AUUGGGGCCUCCACAGCGCUCGCUUGGACUAAACCAAU (mixed, as 11(1) with dC at 14) [11(9)], 60.8 % inhibition. Still for that read-out and setting: for AUUGGGGCCUCCACAGCGCUCGCUUGGACUAAACCAAU (mixed, as 11(1) with dA at 13) [11(15)] the value was 50.4 % inhibition.

Molecule AUUGGGGCCUCCACAGCGCUCGCUUGGACUAAACCAAU (mixed, as 11(1) with dC at 29) [11(12)] registered an activity of 62.5 % inhibition. Still for that read-out and setting: for AUUGGGGCCUCCACAGCGCUCGCUUGGACUAAACCAAU (ssRNA, as 11(1) with PS between 7 and 8) [11(18)] the value was 60.3 % inhibition. Same read-out and setting: for AUUGGGGCCUCCACAGCGCUCGCUUGGACUAAACCAAU (ssRNA, as 11(1) with PS between 9 and 10) [11(20)] the value was 74.7 % inhibition. GCUGGGGCCUCCACAGCGCUCGCUUGGACUAAACCAGC (ssRNA, 2'-OMe at 1-5,15-26,32-38; 2'-F other pyrimidines) [SEQ ID NO: 13] registered an activity of 58.4 % inhibition. For AUUGGGGCCUCCACAGCUGCUCAGCUUGGACUAAACCAAU (ssRNA, as SEQ 10 plus 2'-OMe at C8) [10(1)], the activity turned out to be 41.3 % inhibition. Same read-out and setting: for AUUGGGGCCUCCACAGCUGCUCAGCUUGGACUAAACCAAU (ssRNA, as SEQ 10 plus 2'-OMe at C31) [10(7)] the value was 10.4 % inhibition. Still for that read-out and setting: with AUUGGGGCCUCCACAGCUGCUCAGCUUGGACUAAACCAAU (ssRNA, as SEQ 10 plus 2'-OMe at U32) [10(8)] the figure was 12.8 % inhibition; with AUUGGGGCCUCCACAGCUGCUCAGCUUGGACUAAACCAAU (ssRNA, as SEQ 10 plus 2'-OMe at C12) [10(5)], 8.5 % inhibition. The molecule AUUGGGGCCUCCACAGCUGCUCAGCUUGGACUAAACCAAU (ssRNA, as SEQ 10 plus 2'-OMe at U27) [10(6)] registered an activity of 61.8 % inhibition. In turn, AUUGGGGCCUCCACAGCUGCUCAGCUUGGACUAAACCAAU (ssRNA, as SEQ 10 plus 2'-OMe at C9) [10(2)] gave an activity of 12.6 % inhibition. AUUGGGGCCUCCACAGCUGCUCAGCUUGGACUAAACCAAU (ssRNA, as SEQ 10 plus 2'-OMe at C11) [10(4)] yielded an activity of 3.6 % inhibition.

As for AUUGGGGCCUCCACAGCUGCUCAGCUUGGACUAAACCAAU (ssRNA, as SEQ 10 plus 2'-OMe at U10) [10(3)], the activity worked out at 2 % inhibition.
